Paper PMC9304170, “Chloromethyl Glycosides as Versatile Synthons to Prepare Glycosyloxymethyl‐Prodrugs” (Chemistry (Weinheim an Der Bergstrasse, Germany), 2022)
Values joined by “and” are separate entries in the source; they are usually repeats but may differ in a detail not shown here. Identical values can stand only once.

Columns and labels:
[1] = molecular target: T1, Agrobacterium Sp. β-glucosidase (Abg, GH1 family) (Agrobacterium sp., UniProt P12614); assay: Michaelis-Menten kinetics of enzymatic hydrolysis, release of 4-nitrophenol (absorbance at 405 nm); format: biochemical; settings: transglycosylation suggested for rate enhancement
T1 sequence (P12614 1-459): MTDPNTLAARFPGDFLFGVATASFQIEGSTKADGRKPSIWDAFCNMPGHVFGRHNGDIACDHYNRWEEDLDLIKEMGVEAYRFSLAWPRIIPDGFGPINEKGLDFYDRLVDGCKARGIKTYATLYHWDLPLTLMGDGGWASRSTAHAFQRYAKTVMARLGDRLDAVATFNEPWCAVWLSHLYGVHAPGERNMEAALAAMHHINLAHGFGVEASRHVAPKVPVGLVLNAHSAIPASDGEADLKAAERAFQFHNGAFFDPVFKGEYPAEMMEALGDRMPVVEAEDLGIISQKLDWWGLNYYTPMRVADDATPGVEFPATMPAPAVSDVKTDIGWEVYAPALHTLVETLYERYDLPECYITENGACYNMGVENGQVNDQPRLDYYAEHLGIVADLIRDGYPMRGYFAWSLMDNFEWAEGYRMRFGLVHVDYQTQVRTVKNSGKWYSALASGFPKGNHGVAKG
Description: (§1) Enzymatic reactions were performed in triplo at pH 6.8 (50 mM final concentration) containing 0.1 % bovine serum albumin at 37 °C.[25] Aliquots of 100 μL were taken at constant time periods and added to 100 μL aq. NaOH (0.1 M) in a 96‐well microtitre plate to quench the enzymatic reaction and ensure maximal absorption of sodium 4‐nitrophenolate as outlined in previous studies.[28] The initial rate (vo) was determined normalized on the ∼0.1 U/mL enzyme concentration and plotted against substrate concentration [S]. Non‐linear regression analysis based on 7–10 concentrations depending on the glycoside, was used to determine the Km and k cat values. k cat values were normalized based on the enzyme concentration. […]
(§2) Kinetic evaluation of 4- nitrophenyloxymethyl glycosides. Enzyme reactions were performed in triplicate. Substrate samples (final volume of 1 mL) were prepared by diluting carefully prepared substrate stock solutions with sodium phosphate buffer pH 6.8 (50 mM final concentration) containing 0.1% bovine serum albumin and milliQ to the desired concentration. The samples were equilibrated at 37 °C for at least 5 minutes before the enzyme in 50 mM buffer (2 U per ml, 50 uL) was added. Aliquots of 100 µL were taken at constant time periods and added to 100 µL aq. NaOH (0.1 M) in a 96 well microtiter plate to quench the enzymatic reaction. The absorbance was measured at 405 nm using a Tecan Spark M10 plate reader.
(§3) Negative assay controls contained no substrate or no enzyme. Rates of the enzymatic reactions were determined at 7 different substrate concentrations from 0.02 – 1.0 mM. Km and kcat values were determined by nonlinear regression analysis using Graphpad 5.0 (GraphPad Software, San Diego, California USA, www.graphpad.com) for fitting the data. Calibration samples at varying concentration (0.05 – 0.5 mM) were prepared similar to the substrate samples in the enzyme reactions by diluting a carefully prepared 4-nitrophenol stock solution with sodium phosphate buffer pH 6.8 (50 mM final concentration) containing 0.1% bovine serum albumin and milliQ to the desired concentration. […]
(§4) (T1 determined as 9.13 sec.) was used. Dynamic measurements were started by heating the sample in the NMR to 37 °C and recording a t0-spectrum. Subsequently Abg (V = 2.05 uL, 0.82 U, 1.64 U/mL) was added to the sample outside of the NMR. The sample was mixed by shaking and quickly reintroduced to the NMR.
(§5) The time of enzyme addition was recorded as t0. Spectra were recorded over an appropriate time- scale with the relaxation delay at 3*T1 of the internal standard.
(§6) In vivo experiments were performed at the company Charles Rivers (Den Bosch, The Netherlands) in accordance with Dutch law of animal experiments and under approval of the central committee of animal experiments (CCD). Relative and absolute bioavailability may be determined in different animal models and according to different protocols.
(§7) The following protocol is typical for determining bioavailability in female Beagle dogs. The animals were deprived from food over a time period of 8 h prior to administration and 2 h after administration of the test molecules. Water was supplied without limitation. On the study day, the animals received test molecule 10h […]
(§8) ethanol and 0.9% NaCl + 5% mannitol in water. Blood samples were collected from the jugular vein on the […]

[2] = molecular target: T2, Abg (Agrobacterium Sp. β-glucosidase) (Agrobacterium sp., UniProt P12614); assay: Enzymatic conversion of glycoside-drug conjugates at 200 μM analyzed by HPLC; format: biochemical; settings: for Product release: 200 μM substrate, 50 mM phosphate buffer pH 6.8, Abg 0.1 U/mL; for Product release / Enzymatic hydrolysis by Abg (in words): 37 °C; for Enzymatic hydrolysis by Abg (in words): HPLC
T2 sequence (P12614 1-459): T1 sequence (P12614 1-459)

[3] = substrate: C[C@H]1O[C@@H](OCOc2ccc([N+](=O)[O-])cc2)[C@H](O)[C@@H](O)[C@@H]1O; assay: Michaelis-Menten kinetics of enzymatic hydrolysis, release of 4-nitrophenol (absorbance at 405 nm); format: biochemical, Agrobacterium Sp.; settings: other: 4-nitrophenyloxymethyl glycosides 5a-f, phosphate buffer pH 6.8, 0.1 % BSA, 37 °C, N.A: no activity
Description: as §1, §2, §3, §4, §5, §6, §7, §8

[4] = substrate: O=[N+]([O-])c1ccc(O[C@@H]2O[C@H](CO)[C@@H](O)[C@H](O)[C@H]2O)cc1; assay: as above; format: biochemical, Agrobacterium Sp.; settings: other: 4-nitrophenyl glycosides 6a-f, phosphate buffer pH 6.8, 0.1 % BSA, 37 °C
Description: as §1, §2, §3, §4, §5, §6, §7, §8

[5] = substrate: O=[N+]([O-])c1ccc(OCO[C@@H]2O[C@H](CO)[C@H](O)[C@H](O)[C@H]2O)cc1; assay: as above; format: biochemical, Agrobacterium Sp.; settings: other: 4-nitrophenyloxymethyl glycosides 5a-f, phosphate buffer pH 6.8, 0.1 % BSA, 37 °C, N.A: no activity
Description: as §1, §2, §3, §4, §5, §6, §7, §8

[6] = substrate: C[C@H]1O[C@@H](Oc2ccc([N+](=O)[O-])cc2)[C@H](O)[C@@H](O)[C@@H]1O; assay: as above; format: biochemical, Agrobacterium Sp.; settings: other: 4-nitrophenyl glycosides 6a-f, phosphate buffer pH 6.8, 0.1 % BSA, 37 °C
Description: as §1, §2, §3, §4, §5, §6, §7, §8

[7] = substrate: O=[N+]([O-])c1ccc(OCO[C@@H]2O[C@H](CO)[C@@H](O)[C@H](O)[C@H]2O)cc1; assay: as above; format: biochemical, Agrobacterium Sp.; settings: other: 4-nitrophenyloxymethyl glycosides 5a-f, phosphate buffer pH 6.8, 0.1 % BSA, 37 °C, N.A: no activity
Description: as §1, §2, §3, §4, §5, §6, §7, §8

[8] = substrate: C[C@H]1O[C@@H](OCOc2ccc([N+](=O)[O-])cc2)[C@H](O)[C@@H](O)[C@H]1O; assay: as above; format: biochemical, Agrobacterium Sp.; settings: other: 4-nitrophenyloxymethyl glycosides 5a-f, phosphate buffer pH 6.8, 0.1 % BSA, 37 °C, N.A: no activity
Description: as §1, §2, §3, §4, §5, §6, §7, §8

[9] = substrate: O=[N+]([O-])c1ccc(O[C@@H]2O[C@H](CO)[C@H](O)[C@H](O)[C@H]2O)cc1; assay: as above; format: biochemical, Agrobacterium Sp.; settings: other: 4-nitrophenyl glycosides 6a-f, phosphate buffer pH 6.8, 0.1 % BSA, 37 °C
Description: as §1, §2, §3, §4, §5, §6, §7, §8

[10] = substrate: O=[N+]([O-])c1ccc(O[C@@H]2OC[C@H](O)[C@H](O)[C@H]2O)cc1; assay: as above; format: biochemical, Agrobacterium Sp.; settings: other: 4-nitrophenyl glycosides 6a-f, phosphate buffer pH 6.8, 0.1 % BSA, 37 °C
Description: as §1, §2, §3, §4, §5, §6, §7, §8

[11] = substrate: O=[N+]([O-])c1ccc(O[C@@H]2OC[C@@H](O)[C@H](O)[C@H]2O)cc1; assay: as above; format: biochemical, Agrobacterium Sp.; settings: other: 4-nitrophenyl glycosides 6a-f, phosphate buffer pH 6.8, 0.1 % BSA, 37 °C
Description: as §1, §2, §3, §4, §5, §6, §7, §8

[12] = substrate: C[C@H]1O[C@@H](Oc2ccc([N+](=O)[O-])cc2)[C@H](O)[C@@H](O)[C@H]1O; assay: as above; format: biochemical, Agrobacterium Sp.; settings: other: 4-nitrophenyl glycosides 6a-f, phosphate buffer pH 6.8, 0.1 % BSA, 37 °C
Description: as §1, §2, §3, §4, §5, §6, §7, §8

[13] = 200 μM, in presence of 5 % ethanol
[14] = 0.5 h, in presence of 5 % ethanol
[15] = 1.0 h, in presence of 5 % ethanol
[16] = 2.0 h, in presence of 5 % ethanol

C[C@H]1O[C@@H](Oc2ccc([N+](=O)[O-])cc2)[C@H](O)[C@@H](O)[C@@H]1O [6 b]
V0 at high substrate concentration (in words) [1]: over expected rate‐enhancement

O=[N+]([O-])c1ccc(O[C@@H]2OC[C@@H](O)[C@H](O)[C@H]2O)cc1 [6 c, 4‐nitrophenyl xylose]
V0 at high substrate concentration (in words) [1]: over expected rate‐enhancement

O=[N+]([O-])c1ccc(O[C@@H]2O[C@H](CO)[C@H](O)[C@H](O)[C@H]2O)cc1 [6 d]
V0 at high substrate concentration (in words) [1]: followed a horizontal asymptote

C[C@H]1O[C@@H](Oc2ccc([N+](=O)[O-])cc2)[C@H](O)[C@@H](O)[C@H]1O [6 e]
V0 at high substrate concentration (in words) [1]: followed a horizontal asymptote

OC[C@H]1O[C@@H](OCOc2ccccc2)[C@H](O)[C@@H](O)[C@@H]1O [10 a]
Product release ([2]; 0.5 h): 38.6±2.3% | Product release ([2]; 1.0 h): 66.0±2.0% | Product release ([2]; 2.0 h): 90% and 89.8±1.7% | Increase in conversion compared to direct conjugate Glc−Ph ([2]; after two hours, 200 μM, Abg): twenty

CC(C)c1cccc(C(C)C)c1OCO[C@@H]1O[C@H](CO)[C@@H](O)[C@H](O)[C@H]1O [10 b]
Enzymatic hydrolysis by Abg (in words) [2, 13]: not hydrolyzed | Product release [2, 14]: 1.95±0.3% | Product release [2, 15]: 1.73±0.3% | Product release [2, 16]: 1.66±0.4%

CCCCc1nc(Cl)c(CO)n1Cc1ccc(-c2ccccc2-c2nnn(CO[C@@H]3O[C@H](CO)[C@@H](O)[C@H](O)[C@H]3O)n2)cc1 [10 i]
Enzymatic hydrolysis by Abg (in words) [2, 13]: hydrolyzed slower | Product release [2, 14]: 16.7±4.8% | Product release [2, 15]: 39.3±2.2% | Product release [2, 16]: 51.3±4% | Product release ([2]; 24 h, in presence of 5 % ethanol): 74.7±10%

OC[C@H]1O[C@@H](Oc2ccccc2)[C@H](O)[C@@H](O)[C@@H]1O [Glc−Ph, phenyl β‐D‐glucopyranoside, reference compound]
Product release ([2]; 0.5 h): 1.9±0.04% | Product release ([2]; 1.0 h): 3.0±0.30% | Product release ([2]; 2.0 h): 5.2±0.16% | Product release ([2]; 24 h): 28% and 27.7±5.5%

B1: Agrobacterium Sp. β-glucosidase (Abg, GH1 family) (Agrobacterium sp. ATCC 21400) (protein)
chain: T1 sequence (P12614 1-459)
Km [3]: 239 µM | kcat [3]: 0.796 s⁻¹ | kcat/Km [3]: 3330 M⁻¹ s⁻¹ | Km [4]: 108 µM | kcat [4]: 38.8 s⁻¹ | kcat/Km [4]: 359000 M⁻¹ s⁻¹ | Km [5]: 1870 µM | kcat [5]: 3.71 s⁻¹ | kcat/Km [5]: 1980 M⁻¹ s⁻¹ | Km [6]: 169 µM | kcat [6]: 29.5 s⁻¹ | kcat/Km [6]: 175000 M⁻¹ s⁻¹ | Km [7]: 84 µM | kcat [7]: 18.4 s⁻¹ | kcat/Km [7]: 219000 M⁻¹ s⁻¹ | Km [8]: 202 µM | kcat [8]: 7.18 s⁻¹ | kcat/Km [8]: 35500 M⁻¹ s⁻¹ | Km [9]: 3450 µM | kcat [9]: 63.6 s⁻¹ | kcat/Km [9]: 18400 M⁻¹ s⁻¹ | Km [10]: 175 µM | kcat [10]: 1.03 s⁻¹ | kcat/Km [10]: 5890 M⁻¹ s⁻¹ | Km [11]: 244 µM | kcat [11]: 0.580 s⁻¹ | kcat/Km [11]: 2380 M⁻¹ s⁻¹ | Km [12]: 233 µM | kcat [12]: 60.3 s⁻¹ | kcat/Km [12]: 259000 M⁻¹ s⁻¹
